Experimental data reported in PMC7195466, “A common allosteric mechanism regulates homeostatic inactivation of auxin and gibberellin” (Nature Communications, 2020).
Changes are numbered by the printed parent chain. Names may count otherwise. Blank lines part the entries; values can stand above or below the binder they belong to.

What was measured:
[1] = substrate: C=C1C[C@]23C[C@H]1CC[C@H]2[C@@]12CC[C@H](O)[C@@](C)(C(=O)O1)[C@H]2[C@@H]3C(=O)O; assay: GC-SIM-MS of GA34; format: biochemical, Oryza sativa; details: multimer forms measured separately (monomer, dimer, tetramer); same
Description: GC-SIM-MS of GA34 on OsGA2ox3 (GA 2-oxidase 3) | The […]/[…]-tetramer affected both the Km and the Vmax values

[2] = substrate: C=C1C[C@]23C[C@H]1CC[C@H]2[C@@]12CC[C@H](O)[C@@](C)(C(=O)O1)[C@H]2[C@@H]3C(=O)O; assay: GC-SIM-MS of GA34; format: biochemical, Oryza sativa; details: multimer forms measured separately; Methods print Cys187 instead of C186; same
Description: GC-SIM-MS of GA34 on OsGA2ox3 (GA 2-oxidase 3) | whereas the […]/[…] monomer affected only the Km

[3] = biological target: Oryza sativa dioxygenase for auxin oxidation (OsDAO) (rice (Oryza sativa)) (UniProt Q7XKU5)

B1: OsGA2ox3 (GA 2-oxidase 3) (Oryza sativa Japonica Group; F100A/R97A) (protein)
chain: MVVLAGPPAVDHIPLLRSPDPGDVFSGVPVVDLGSPGAARAVVDACERYGFFKVVNHGVATDTMDKAESEAVRFFSQTQPDKDRSGPAYPFGYGSKAIGANGDMGWLEYLLLALDDASLADACTVPSCAVFRAALNEYISGVRKVAVRVMEAMSEGLGIAQADALSALVTAEGSDQVFRVNHYPPCRALQGLGCSVTGFGEHTDPQLVSVLRSNGTSGLQIALRDGQWVSVPSDRDSFFVNVGDSLQVLTNGRFKSVKHRVVANSLKSRVSFIYFGGPPLAQRIAPLPQLLGEGEQSLYKEFTWDEYKKAAYKSRLGDNRLAQFEKK
notes: full-length coding region in pGEX6P1, GST tag cut off with PreScission protease, E. coli Rosetta (DE3) pLysS; monomer, homotetramer with GA4
- Km [1]: 0.52 ± 0.10 (tetramer) μM

B2: OsGA2ox3 (GA 2-oxidase 3) (Oryza sativa Japonica Group; C186A/W106A) (protein)
chain: B1 chain with A97R, A100F, W106A, C186A
notes: as for B1
- Km [2]: 5.41 ± 0.96 (monomer) μM

- Vmax of the dimer against the monomer (forms separated by gel filtration) [3]: 22 fold
B3: Oryza sativa dioxygenase for auxin oxidation (OsDAO) (enzyme)
chain: MVEIPAIDLRLAGGGGGAEETARLRDACARLGCFRVSGHGVPPGLQAEMKAAVRALFDLPDDAKRRNADIIPGSGYVPPGTANPLYEAFGLCDAAAPADVDAFCARLDAPPHVRETVKAYAERMHSLIVDVAGKVAASLGLHGASFQDWPCQFRMNRYNYTQDSVGSPGVQVHTDSGFLTVLQEDECVGGLEVLDPAAGEFVPVDPLPGSFVVNVGDVGQAWSNGRLHNVKHRVQCVAAVPRVSIAMFLLAPKDDTVSAPGELVDGEHPRRYREFKYDDYRRLRLSTGERAGEALARLAA
